Results on four molecules are retold here after US5945585.

For assay [1], the target named is [14C]oleoyl-ACP made from E. coli acyl carrier protein (E. coli) (UniProt P0A6A8). Particulars: scale: times the E. coli background thioesterase activity.
Assay [2] has the same target. Particulars: scale: pmoles per min per microliter of cell lysate.
Assay [3] concerns the target caproyl-ACP (10:0-ACP). Particulars: scale: pmoles per min per microliter of cell lysate.
Assay [4] concerns the target lauryl-ACP (12:0-ACP). The note with it: scale: pmoles per min per microliter of cell lysate.
Assay [5] has as its target [14C]stearoyl-ACP made from E. coli acyl carrier protein (E. coli) (UniProt P0A6A8).
The target in assay [6] is [14C]oleoyl-ACP made from E. coli acyl carrier protein (E. coli) (UniProt P0A6A8).

“β-galactosidase fusion protein of the Brassica napus oleoyl-ACP thioesterase (p5C insert in pBluescript SK, correct orientation) (enzyme)” had an Oleoyl-ACP thioesterase activity in assay [1] of 26.

For the molecule “β-galactosidase fusion protein of the Cuphea viscossisima oleoyl-ACP thioesterase precursor (p1A insert in pBluescript) (enzyme)”, the results for the activity per microliter of cell lysate in assay [2], in assay [3] and in assay [4] were 15.5, 0.05 and 0.1, respectively.

B1: soybean seed acyl-ACP thioesterase, purified from developing soybean seeds (Glycine max cultivar Wye) (enzyme)
chain: RVEADPGTLADRLRVGSLTEDGLSYKEKFIVRSYEVGINKTATVETIANLLQEVGCNHAQSVGYSTDGFATTPTMRKLRLIWVTARMHIEIYKYPAWSDIVEIETWCQGEGRVGTRRDFILKDYATDEVIGRATSKWVMMNQDTRRLQKVSDDVKEEYLVFCPREPRLAIPEADSNSLKKIPKLEDPAQYSRLGLVPRRADLDMNQHVNNVTYIGWVLESMPQEIIDSHELQSITLDYRRECGQHDIVDSLTSVEAIQGGAEAVPELKGTNGSATAREDKHEHQQFLHLLRLSTEGLEINRGRTEWRKKAPR
With B1, in assay [5], the Net pmol/µL/min (standard acyl-ACP thioesterase assay) worked out at 4.07 pmol/µL/min.

B2: soybean seed acyl-ACP thioesterase expressed from the phaseolin:soybean thioesterase transgene (pZPHTE1) in Brassica napus line 241 (enzyme)
chain: B1 chain
B2 came in with a Thioesterase Activity (nmole min^-1 embryo^-1), nmoles of 18:1-ACP hydrolyzed per embryo per minute (nmole min^-1 embryo^-1) in assay [6] of 4.53.
